Legend:
[1] = target: T1, human DLL4 on 293T-hDLL4 cells (human, UniProt Q9NR61 27-685); experiment: flow cytometry on 293T-hDLL4 cells, antibody 20 µg/mL
T1 construct: whole, on cells; also called 293T-DLL4; HEK293T-hDLL4

[2] = target: T2, recombinant extracellular domain protein of cynomolgus monkey DLL3 (cyno.DLL3-ECD-His) (cynomolgus monkey, UniProt A0A2K5WSR1 27-490); experiment: ELISA, coated cynoDLL3-ECD-his, murine antibody titrated
T2 construct: extracellular domain; Commercial protein; not shown: His tag
T2 sequence: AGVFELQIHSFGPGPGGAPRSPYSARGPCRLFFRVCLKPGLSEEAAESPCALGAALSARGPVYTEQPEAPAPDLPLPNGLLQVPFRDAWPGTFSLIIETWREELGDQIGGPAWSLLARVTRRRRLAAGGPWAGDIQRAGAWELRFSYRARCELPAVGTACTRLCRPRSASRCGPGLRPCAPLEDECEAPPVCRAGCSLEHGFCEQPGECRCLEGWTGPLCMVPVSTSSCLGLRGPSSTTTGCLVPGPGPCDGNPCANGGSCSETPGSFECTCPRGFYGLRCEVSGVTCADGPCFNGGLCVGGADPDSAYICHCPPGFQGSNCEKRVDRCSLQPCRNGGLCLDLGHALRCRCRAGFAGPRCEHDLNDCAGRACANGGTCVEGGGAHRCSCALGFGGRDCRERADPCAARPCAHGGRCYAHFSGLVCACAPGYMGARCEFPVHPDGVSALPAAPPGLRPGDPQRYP

[3] = target: T3, human DLL1 on 293T-hDLL1 cells (human, UniProt O00548 18-723); experiment: flow cytometry on 293T-hDLL1 cells, antibody 20 µg/mL
T3 construct: whole, on cells; also called 293T-DLL1; HEK293T-hDLL1
T3 sequence (looked up): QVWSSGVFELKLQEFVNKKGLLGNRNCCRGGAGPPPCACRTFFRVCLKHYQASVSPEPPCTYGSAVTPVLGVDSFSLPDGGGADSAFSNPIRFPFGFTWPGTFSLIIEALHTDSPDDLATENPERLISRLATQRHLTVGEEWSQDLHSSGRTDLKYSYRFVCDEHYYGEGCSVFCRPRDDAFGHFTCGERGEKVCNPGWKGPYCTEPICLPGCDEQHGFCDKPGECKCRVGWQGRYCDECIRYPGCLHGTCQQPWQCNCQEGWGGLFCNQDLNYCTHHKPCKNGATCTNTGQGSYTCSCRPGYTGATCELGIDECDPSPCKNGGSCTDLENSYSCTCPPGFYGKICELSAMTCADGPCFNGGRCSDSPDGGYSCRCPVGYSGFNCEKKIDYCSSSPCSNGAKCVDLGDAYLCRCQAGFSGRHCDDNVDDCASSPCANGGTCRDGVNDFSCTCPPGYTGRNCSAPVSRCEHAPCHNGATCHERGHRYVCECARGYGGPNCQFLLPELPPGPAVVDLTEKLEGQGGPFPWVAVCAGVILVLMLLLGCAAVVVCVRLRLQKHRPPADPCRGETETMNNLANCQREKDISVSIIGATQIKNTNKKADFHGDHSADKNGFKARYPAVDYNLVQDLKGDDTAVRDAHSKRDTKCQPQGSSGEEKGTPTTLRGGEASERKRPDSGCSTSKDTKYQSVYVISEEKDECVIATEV

[4] = target: T4, recombinant extracellular domain protein of human DLL3 (h.DLL3-ECD-His) (human, UniProt Q9NYJ7 27-492); experiment: ELISA, coated hDLL3-ECD-his, murine antibody titrated
T4 construct: extracellular domain; Commercial protein; also called human DLL3 antigen; not shown: His tag
T4 sequence (looked up): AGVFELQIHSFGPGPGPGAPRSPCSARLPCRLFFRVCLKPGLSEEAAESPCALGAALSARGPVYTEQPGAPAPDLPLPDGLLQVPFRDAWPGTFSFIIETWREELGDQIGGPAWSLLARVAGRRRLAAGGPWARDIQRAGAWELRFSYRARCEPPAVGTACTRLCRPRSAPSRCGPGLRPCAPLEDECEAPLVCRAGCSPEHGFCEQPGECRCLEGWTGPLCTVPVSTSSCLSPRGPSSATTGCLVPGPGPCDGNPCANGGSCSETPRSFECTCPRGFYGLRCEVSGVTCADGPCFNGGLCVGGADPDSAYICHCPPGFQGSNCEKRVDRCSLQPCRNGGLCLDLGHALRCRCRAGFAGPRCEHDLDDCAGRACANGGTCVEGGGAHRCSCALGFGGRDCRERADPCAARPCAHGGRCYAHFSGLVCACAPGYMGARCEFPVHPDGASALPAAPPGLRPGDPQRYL

[5] = target: T4, recombinant extracellular domain …; experiment: ELISA, coated h.DLL3-ECD-his 0.2 µg/mL, antibody titrated
[6] = target: canine canis DLL3-ECD-his antigen protein (canine); experiment: ELISA, coated Canis DLL3-his 0.2 µg/mL, antibody titrated
[7] = target: T5, recombinant extracellular domain protein of rat DLL3 (Rat DLL3-His) (rat, UniProt O88671 33-494); experiment: ELISA, coated Rat DLL3-his 0.2 µg/mL, antibody titrated
T5 construct: extracellular domain; Commercial protein; not shown: His tag
T5 sequence (looked up): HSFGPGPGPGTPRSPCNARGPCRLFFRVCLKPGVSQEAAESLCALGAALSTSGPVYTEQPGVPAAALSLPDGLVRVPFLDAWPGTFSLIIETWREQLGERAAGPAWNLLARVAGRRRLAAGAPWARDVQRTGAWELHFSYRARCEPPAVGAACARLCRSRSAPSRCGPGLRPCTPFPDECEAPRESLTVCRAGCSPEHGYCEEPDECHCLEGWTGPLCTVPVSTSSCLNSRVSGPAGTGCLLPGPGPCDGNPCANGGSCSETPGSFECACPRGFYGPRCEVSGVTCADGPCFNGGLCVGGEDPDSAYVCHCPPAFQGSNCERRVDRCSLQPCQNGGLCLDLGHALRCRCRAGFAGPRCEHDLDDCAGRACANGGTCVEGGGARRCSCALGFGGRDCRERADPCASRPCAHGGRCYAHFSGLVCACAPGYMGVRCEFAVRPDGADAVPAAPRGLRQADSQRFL

[8] = target: T6, recombinant extracellular domain protein of mouse DLL3 (Mouse DLL3-His) (mouse, UniProt O88516 33-490); experiment: ELISA, coated Mouse DLL3-His 0.2 µg/mL, antibody titrated
T6 construct: extracellular domain; Commercial protein; also called mDLL3; not shown: His tag
T6 sequence (looked up): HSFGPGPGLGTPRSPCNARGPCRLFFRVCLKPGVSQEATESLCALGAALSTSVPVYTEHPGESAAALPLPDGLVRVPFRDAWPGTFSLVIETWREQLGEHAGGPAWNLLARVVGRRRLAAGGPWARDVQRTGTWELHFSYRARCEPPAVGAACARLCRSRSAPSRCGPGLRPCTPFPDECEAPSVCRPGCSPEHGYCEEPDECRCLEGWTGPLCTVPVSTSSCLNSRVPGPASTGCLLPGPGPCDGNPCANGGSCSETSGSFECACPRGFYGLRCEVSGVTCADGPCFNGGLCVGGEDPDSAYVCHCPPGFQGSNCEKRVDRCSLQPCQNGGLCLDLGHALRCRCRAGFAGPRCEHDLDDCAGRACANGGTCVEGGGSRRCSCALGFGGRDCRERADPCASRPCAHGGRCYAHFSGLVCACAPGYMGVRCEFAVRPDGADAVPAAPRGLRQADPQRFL

[9] = target: T2, recombinant extracellular domain …; experiment: ELISA, coated cyno.DLL3-ECD-his 0.2 µg/mL, antibody titrated

T1 sequence (Q9NR61 27-685): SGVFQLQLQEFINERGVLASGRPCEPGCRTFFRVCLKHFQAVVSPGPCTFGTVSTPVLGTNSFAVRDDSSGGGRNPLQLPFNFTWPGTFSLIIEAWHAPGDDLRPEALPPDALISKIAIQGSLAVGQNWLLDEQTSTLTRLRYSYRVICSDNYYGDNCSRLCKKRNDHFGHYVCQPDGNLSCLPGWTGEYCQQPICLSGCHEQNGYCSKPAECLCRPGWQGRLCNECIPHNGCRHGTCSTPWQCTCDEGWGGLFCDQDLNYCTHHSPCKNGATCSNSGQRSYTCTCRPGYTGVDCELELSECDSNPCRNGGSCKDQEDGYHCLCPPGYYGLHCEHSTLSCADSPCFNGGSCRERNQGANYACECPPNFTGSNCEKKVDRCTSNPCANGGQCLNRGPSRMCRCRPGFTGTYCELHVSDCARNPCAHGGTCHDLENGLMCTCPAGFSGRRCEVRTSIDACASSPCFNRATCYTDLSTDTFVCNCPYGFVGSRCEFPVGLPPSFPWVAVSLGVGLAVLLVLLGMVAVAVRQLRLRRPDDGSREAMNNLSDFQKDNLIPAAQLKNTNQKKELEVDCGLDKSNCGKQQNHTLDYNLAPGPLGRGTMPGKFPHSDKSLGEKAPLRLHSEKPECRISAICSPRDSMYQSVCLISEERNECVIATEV

Row | Binder | positive rate [1] [%] | EC50 [2] [ng/mL] | positive rate [3] [%] | EC50 [4] [ng/mL] | EC50 [5] [ng/mL] | EC50 [6] [ng/mL] | EC50 [7] [ng/mL] | EC50 [8] [ng/mL] | EC50 [9] [ng/mL]
1 | murine antibody 6F11C10 (antibody, V domains shown, Murine antibody purified from hybridoma supernatant) VH: EVHLQQSGPVLVKPGPSVKISCKASGFTFTDYYMHWVKQSHGKSLEWIGLVYPYNGDISYNQKFKGKATLTVDTSSSTAYMELNSLTSEDSAVYYCARQGNYVNNAIDYWGQGTSVTVSS VL: DIVMTQSQKFMSTSVGDRVSISCKASQNVGNIIAWYQQKPGQSPKALIYLASYRYSGVPDRFTGSGSGTDFTLTINNVQSEDLAEYFCQQYSDSPYTFGSGTKLEI | 0.76 | 19.5 | 0.64 | 7.59 |  |  |  |  | 
2 | 6F11C10-Hz2 antibody (antibody, human IgG1, kappa, V domains shown, Optimized humanized IgG1/kappa; also called 6FC11C0-Hz2; 6F11C10-Hz2-biotin) VH: EVQLVQSGAEVKKPGASVKVSCKASGFTFTDYYMHWVRQAPGQSLEWMGLVYPYSGDISYAQKFQGRVTLTVDTSISTAYMELSRLRSDDTAVYYCARQGNYVNNAIDYWGQGTLVTVSS VL: DIQMTQSPSSLSASVGDRVTITCKASQNVGNIIAWYQQKPGKSPKALIYLASYRYSGVPSRFSGSGSGTDFTLTISSLQPEDVATYFCQQYSDSPYTFGQGTKVEIKR |  |  |  |  | 8.23 | 17.2 | 7.35 | 30.1 | 10.8
3 | murine antibody 87F7F10 (antibody, V domains shown, Murine antibody purified from hybridoma supernatant) VH: DVQLQESGPGLVKPSQSLSLTCSVTGYSITSDFYWNWIRQFPGNKLEWMGYITYDGSTNYDPSLKNRISITRDTSKNQFFLKLNSVTAEDTATYYCVYGDFNRHAMDYWGQGTSVTVSS VL: DIVMSQSPSSLAVSAGEKVTMSCRSSQSLFNSRTRKNYLAWYQQKPGQPPKVLIYWASTRESGVPDRFTGSGSGTDFTLTISSVQAEDLAVYYCEQSFYLFTFGTGTKLEI | 0.42 | 1.31 | 1.84 | 1.68 |  |  |  |  | 
4 | murine antibody 55C11E4 (antibody, V domains shown, Murine antibody purified from hybridoma supernatant) VH: EVQLQQSGPVLVKPGASVKMSCKASGYTFTDYYMNWVKQSHGKSLEWIGVINPYNGGTNYSQKFKGKATLTVDKSSSTAYMELNSLTSEDSAVYYCARDSNYVGLLDYWGQGTSVTVSS VL: DIVLTQSPATLSVTPGDSVSLSCRASQSISNNLHWYQQKSHESPRLLIKYASQSISGIPSRFSGSGSGPDFTLSIDSVETEDFGVYFCQQSNSWPYTFGGGTKLEIK | 0.1 | 40.9 | 0.92 | 56.7 |  |  |  |  | 
5 | murine antibody 59B10D3 (antibody, V domains shown, Murine antibody purified from hybridoma supernatant) VH: EVKLEESGGGLVQPGGSMKLSCAASGFTFSDAWMDWVRQSPEKGLEWIAEIRNKANNHATYYTESVKGRFTISRDDSKSSVYLQMISLRPEDTGIYYCTRNNYGSTWTYYAMDYWGQGTSVTVSS VL: DIQMTQTSSSLSASLGDRVTINCRASQDISNYLNWYQQKPDGTVKLLIYYTSRLHSGVPSRFSGSGSGTDYSLTISNLEHEDIATYFCQQGYTLPLTFGAGTNLELK | 0.67 | 1.25 | 6.3 | 1.3 |  |  |  |  | 
6 | 55C11E4-Hz2 (antibody, human IgG1, kappa, V domains shown, Optimized humanized IgG1/kappa; also called 55C11E4-Hz2-biotin) VH: EVQLVQSGAEVKKPGASVKVSCKASGYTFTDYYMNWVRQAPGQRLEWMGVINPYNGGTNYAQKFQGRVTLTVDKSASTAYMELSSLRSEDTAVYYCARDSNYVGLLDYWGQGTLVTVSS VL: DIVLTQSPATLSLSPGERATLSCRASQSISNNLHWYQQKPGQAPRLLIKYASQSISGIPARFSGSGSGPDFTLTISSLEPEDFAVYFCQQSNSWPYTFGQGTKVEIKR |  |  |  |  | 4.95 | 12.9 | 3.67 | 21.3 | 4.98

Reference: patent US20260166168A1 (MEDILINK THERAPEUTICS SUZHOU, published 2026)
